The target of this experiment is RNF111 (Arkadia) (UniProt Q6ZNA4). The experiment is described as follows: proximity ligation assay (PLA). To be noted: ARKL1 KO U2OS cells complemented with HA-ARKL1WT (n = 28), HA-ARKL1SIM* (n = 20) or vector (n = 17); antibodies against HA and RNF111; parent: est. 9.0; read off a plot.
UniProt Q6ZNA4, sequence (Q6ZNA4 whole entry): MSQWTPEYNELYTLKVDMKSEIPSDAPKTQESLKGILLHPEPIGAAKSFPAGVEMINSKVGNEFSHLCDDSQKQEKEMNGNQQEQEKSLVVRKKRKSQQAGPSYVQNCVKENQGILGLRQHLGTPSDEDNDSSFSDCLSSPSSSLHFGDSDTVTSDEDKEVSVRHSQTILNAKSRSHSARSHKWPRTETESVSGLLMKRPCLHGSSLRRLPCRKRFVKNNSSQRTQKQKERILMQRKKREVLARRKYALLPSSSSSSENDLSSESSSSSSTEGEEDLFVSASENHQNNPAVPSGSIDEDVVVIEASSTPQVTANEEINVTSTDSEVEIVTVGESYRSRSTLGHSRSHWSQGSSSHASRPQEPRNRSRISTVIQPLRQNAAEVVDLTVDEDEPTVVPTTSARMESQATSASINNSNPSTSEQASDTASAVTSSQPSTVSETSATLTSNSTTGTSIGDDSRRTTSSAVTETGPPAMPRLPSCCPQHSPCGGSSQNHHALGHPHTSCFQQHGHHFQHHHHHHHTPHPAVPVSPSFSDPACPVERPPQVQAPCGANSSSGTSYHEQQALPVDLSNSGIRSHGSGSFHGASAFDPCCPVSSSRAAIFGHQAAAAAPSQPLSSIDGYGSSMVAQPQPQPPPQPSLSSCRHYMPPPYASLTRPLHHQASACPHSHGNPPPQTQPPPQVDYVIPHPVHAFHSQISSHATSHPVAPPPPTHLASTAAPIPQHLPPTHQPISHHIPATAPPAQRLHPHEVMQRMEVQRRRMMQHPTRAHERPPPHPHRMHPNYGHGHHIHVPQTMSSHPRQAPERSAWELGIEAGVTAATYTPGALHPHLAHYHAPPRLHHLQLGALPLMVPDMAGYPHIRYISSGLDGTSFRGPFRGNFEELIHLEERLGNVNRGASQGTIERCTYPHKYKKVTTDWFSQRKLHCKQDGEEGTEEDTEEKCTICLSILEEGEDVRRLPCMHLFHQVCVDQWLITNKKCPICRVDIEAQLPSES

With “HA-ARKL1 wild type (from UniProt Q96B23) SIM*”, the response (PLA foci per cell) was 1.
